Target: Cytochrome-C, type III (Sigma C-2506) (UniProt P00004)
Experiment: SDS-PAGE of the methanol precipitate

Cytochrome-C, type III (Sigma C-2506), P00004 1-105 (natural protein; other documents disagree on this pair), sequence (P00004 whole entry): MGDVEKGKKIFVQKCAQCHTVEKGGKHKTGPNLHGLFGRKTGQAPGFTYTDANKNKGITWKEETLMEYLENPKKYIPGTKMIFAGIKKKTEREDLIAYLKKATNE

stoichiometry N: > 7
Substance: Cytochrome-C, type III (Sigma C-2506), P00004 1-105 (natural protein; other documents disagree on this pair)

From publication PMC6806390
